From doi:10.1101/2024.11.26.625568

What was measured:
dynein [1] = target: dynein (UniProt Q14204)
dynein [2] = target: dynein (UniProt Q14204); remark: listed apart in the source
dynein [3] = target: dynein (UniProt Q14204); remark: listed apart in the source

| run frequency of DDN complexes, against wild-type NuMA FL (fold increase) (dynein [2]) | Substance | other results |
| --- | --- | --- |
| – | Full-length NuMA (from UniProt Q14980 1-2115) (natural protein) | frequency of processive runs of DDN complexes, against NuMA 1-705 under the same conditions (fold less frequent) (dynein [1]): 10 |
| < 4 | NuMA FL T2055D (from UniProt Q14980 1-2115) (natural protein) | – |
| – | NuMA 1-1699 (from UniProt Q14980 1-1699) (domain or fragment) | run frequency of DDN complexes in single-molecule motility assays, against the shorter NuMA fragments (dynein [3]): 5 fold lower |
| < 4 | NuMA FL S1969D (from UniProt Q14980 1-2115) (natural protein) | – |
